Data from the supplement of paper PMC9112550, “Optimization of the antimicrobial peptide Bac7 by deep mutational scanning” (BMC Biology, 2022).

Test system: Escherichia coli TOP10
Experiment: shrunken log2 fold change of peptide-encoding DNA abundance (4.5 h post-induction vs induction); higher = less antimicrobial activity (less host growth inhibition)
Conditions: time post-induction: 4.5 h; library: site-saturation at positions 5, 18, 19, 20
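Note: peptides expressed intracellularly from a pBAD plasmid library in pooled LB shake-flask culture, induced with 0.3% L-arabinose, DNA abundance read by NGS, three biological replicates, DESeq2 with apeglm shrinkage.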

Sequence	shrunken log2 fold change
RRIRPRPPRLPRPRPRPSANPRP	-0.00762
RRIRPRPPRLPRPRPRPSCIPRP	-0.749
RRIRPRPPRLPRPRPRPSDQPRP	0.029
RRIRPRPPRLPRPRPRPSDWPRP	0.248
RRIRPRPPRLPRPRPRPSEAPRP	-0.0726
RRIRPRPPRLPRPRPRPSETPRP	-0.182
RRIRPRPPRLPRPRPRPSFNPRP	-0.629
RRIRPRPPRLPRPRPRPSFYPRP	-0.303
RRIRPRPPRLPRPRPRPSGDPRP	0.14
RRIRPRPPRLPRPRPRPSHHPRP	-0.529
RRIRPRPPRLPRPRPRPSHLPRP	-0.168
RRIRPRPPRLPRPRPRPSIGPRP	0.166
RRIRPRPPRLPRPRPRPSLDPRP	-0.0512
RRIRPRPPRLPRPRPRPSMAPRP	-0.0637
RRIRPRPPRLPRPRPRPSNDPRP	-0.288
RRIRPRPPRLPRPRPRPSNMPRP	-0.884
RRIRPRPPRLPRPRPRPSNQPRP	-0.45
RRIRPRPPRLPRPRPRPSNVPRP	-0.463
RRIRPRPPRLPRPRPRPSPHPRP	-0.367
RRIRPRPPRLPRPRPRPSPTPRP	0.22
RRIRPRPPRLPRPRPRPSSKPRP	-0.217
RRIRPRPPRLPRPRPRPSSPPRP	-0.406
RRIRPRPPRLPRPRPRPSTMPRP	-0.297
RRIRPRPPRLPRPRPRPSWMPRP	-0.288
RRIRPRPPRLPRPRPRPSWWPRP	0.394

Sequence	shrunken log2 fold change
RRIRPRPPRLPRPRPRPSYHPRP	-0.641
RRIRPRPPRLPRPRPRPSYNPRP	-0.671
RRIRPRPPRLPRPRPRPTANPRP	0.297
RRIRPRPPRLPRPRPRPTAYPRP	-0.203
RRIRPRPPRLPRPRPRPTCPPRP	0.0562
RRIRPRPPRLPRPRPRPTCTPRP	0.104
RRIRPRPPRLPRPRPRPTDPPRP	0.0787
RRIRPRPPRLPRPRPRPTEYPRP	-0.264
RRIRPRPPRLPRPRPRPTFVPRP	0.012
RRIRPRPPRLPRPRPRPTGRPRP	0.459
RRIRPRPPRLPRPRPRPTGSPRP	0.146
RRIRPRPPRLPRPRPRPTIIPRP	-0.65
RRIRPRPPRLPRPRPRPTKKPRP	0.0418
RRIRPRPPRLPRPRPRPTLRPRP	0.449
RRIRPRPPRLPRPRPRPTMLPRP	-0.114
RRIRPRPPRLPRPRPRPTNIPRP	-0.687
RRIRPRPPRLPRPRPRPTPCPRP	0.365
RRIRPRPPRLPRPRPRPTQSPRP	0.436
RRIRPRPPRLPRPRPRPTQVPRP	0.124
RRIRPRPPRLPRPRPRPTRAPRP	0.707
RRIRPRPPRLPRPRPRPTSMPRP	-0.0129
RRIRPRPPRLPRPRPRPTSPPRP	-0.0252
RRIRPRPPRLPRPRPRPTSVPRP	0.181
RRIRPRPPRLPRPRPRPTWCPRP	0.08
RRIRPRPPRLPRPRPRPTWWPRP	0.426

Sequence	shrunken log2 fold change
RRIRPRPPRLPRPRPRPTYVPRP	0.0486
RRIRPRPPRLPRPRPRPVCIPRP	-0.122
RRIRPRPPRLPRPRPRPVCMPRP	0.132
RRIRPRPPRLPRPRPRPVCNPRP	-0.141
RRIRPRPPRLPRPRPRPVCTPRP	0.0082
RRIRPRPPRLPRPRPRPVDLPRP	0.036
RRIRPRPPRLPRPRPRPVECPRP	0.00863
RRIRPRPPRLPRPRPRPVERPRP	0.289
RRIRPRPPRLPRPRPRPVEWPRP	0.0458
RRIRPRPPRLPRPRPRPVEYPRP	-0.156
RRIRPRPPRLPRPRPRPVGEPRP	0.415
RRIRPRPPRLPRPRPRPVICPRP	0.0853
RRIRPRPPRLPRPRPRPVIDPRP	-0.0426
RRIRPRPPRLPRPRPRPVKDPRP	-0.0309
RRIRPRPPRLPRPRPRPVKLPRP	-0.0669
RRIRPRPPRLPRPRPRPVKRPRP	-0.171
RRIRPRPPRLPRPRPRPVKWPRP	0.00231
RRIRPRPPRLPRPRPRPVLRPRP	0.303
RRIRPRPPRLPRPRPRPVNNPRP	-0.525
RRIRPRPPRLPRPRPRPVNQPRP	0.223
RRIRPRPPRLPRPRPRPVNRPRP	-0.0842
RRIRPRPPRLPRPRPRPVQIPRP	-0.13
RRIRPRPPRLPRPRPRPVRAPRP	0.622
RRIRPRPPRLPRPRPRPVVYPRP	-0.538
RRIRPRPPRLPRPRPRPVWVPRP	0.0215

Sequence	shrunken log2 fold change
RRIRPRPPRLPRPRPRPVWYPRP	-0.219
RRIRPRPPRLPRPRPRPWADPRP	0.0868
RRIRPRPPRLPRPRPRPWCGPRP	0.0629
RRIRPRPPRLPRPRPRPWDCPRP	-0.0719
RRIRPRPPRLPRPRPRPWDTPRP	-0.743
RRIRPRPPRLPRPRPRPWGRPRP	0.122
RRIRPRPPRLPRPRPRPWIKPRP	-0.0265
RRIRPRPPRLPRPRPRPWKKPRP	-0.0306
RRIRPRPPRLPRPRPRPWKSPRP	0.0643
RRIRPRPPRLPRPRPRPWLGPRP	0.256
RRIRPRPPRLPRPRPRPWLWPRP	0.0404
RRIRPRPPRLPRPRPRPWMKPRP	-0.0651
RRIRPRPPRLPRPRPRPWMMPRP	-0.03
RRIRPRPPRLPRPRPRPWMWPRP	0.0296
RRIRPRPPRLPRPRPRPWPGPRP	0.367
RRIRPRPPRLPRPRPRPWPHPRP	0.0318
RRIRPRPPRLPRPRPRPWQLPRP	0.224
RRIRPRPPRLPRPRPRPWRFPRP	0.212
RRIRPRPPRLPRPRPRPWRGPRP	0.344
RRIRPRPPRLPRPRPRPWRKPRP	0.0228
RRIRPRPPRLPRPRPRPWTRPRP	0.0201
RRIRPRPPRLPRPRPRPWVVPRP	0.0434
RRIRPRPPRLPRPRPRPWWIPRP	-0.243
RRIRPRPPRLPRPRPRPWWKPRP	-0.0424
RRIRPRPPRLPRPRPRPWYKPRP	0.215

Sequence	shrunken log2 fold change
RRIRPRPPRLPRPRPRPWYVPRP	-0.369
RRIRPRPPRLPRPRPRPYAAPRP	0.0621
RRIRPRPPRLPRPRPRPYADPRP	0.0774
RRIRPRPPRLPRPRPRPYARPRP	-0.0595
RRIRPRPPRLPRPRPRPYAWPRP	-0.152
RRIRPRPPRLPRPRPRPYCEPRP	-0.337
RRIRPRPPRLPRPRPRPYCNPRP	-0.481
RRIRPRPPRLPRPRPRPYDDPRP	-0.0211
RRIRPRPPRLPRPRPRPYEFPRP	-0.0919
RRIRPRPPRLPRPRPRPYFVPRP	-0.488
RRIRPRPPRLPRPRPRPYHEPRP	-0.348
RRIRPRPPRLPRPRPRPYHHPRP	-0.655
RRIRPRPPRLPRPRPRPYHRPRP	-0.00884
RRIRPRPPRLPRPRPRPYKAPRP	-0.183
RRIRPRPPRLPRPRPRPYKHPRP	-0.777
RRIRPRPPRLPRPRPRPYKMPRP	-0.605
RRIRPRPPRLPRPRPRPYLKPRP	-0.259
RRIRPRPPRLPRPRPRPYLLPRP	-1.57
RRIRPRPPRLPRPRPRPYNVPRP	-0.0809
RRIRPRPPRLPRPRPRPYQCPRP	-0.0702
RRIRPRPPRLPRPRPRPYQIPRP	-0.314
RRIRPRPPRLPRPRPRPYRMPRP	0.0542
RRIRPRPPRLPRPRPRPYRNPRP	-0.558
RRIRPRPPRLPRPRPRPYSFPRP	-0.796
RRIRPRPPRLPRPRPRPYSLPRP	-0.139

Sequence	shrunken log2 fold change
RRIRPRPPRLPRPRPRPYTMPRP	0.0535
RRIRPRPPRLPRPRPRPYVFPRP	-0.659
RRIRPRPPRLPRPRPRPYWHPRP	-0.405
RRIRPRPPRLPRPRPRPYYLPRP	-0.745
RRIRPRPPRLPRPRPRPYYYPRP	-0.937
RRIRQRPPRLPRPRPRPAAAPRP	0.258
RRIRQRPPRLPRPRPRPAAEPRP	0.19
RRIRQRPPRLPRPRPRPACHPRP	0.105
RRIRQRPPRLPRPRPRPACTPRP	-0.475
RRIRQRPPRLPRPRPRPADCPRP	-0.00699
RRIRQRPPRLPRPRPRPADFPRP	-0.193
RRIRQRPPRLPRPRPRPADIPRP	-0.01
RRIRQRPPRLPRPRPRPADLPRP	-0.0217
RRIRQRPPRLPRPRPRPADTPRP	-0.128
RRIRQRPPRLPRPRPRPAEEPRP	0.0112
RRIRQRPPRLPRPRPRPAEKPRP	-0.00963
RRIRQRPPRLPRPRPRPAETPRP	0.0338
RRIRQRPPRLPRPRPRPAFDPRP	-0.094
RRIRQRPPRLPRPRPRPAFHPRP	-0.0711
RRIRQRPPRLPRPRPRPAFVPRP	-0.0399
RRIRQRPPRLPRPRPRPAGEPRP	0.156
RRIRQRPPRLPRPRPRPAGGPRP	0.204
RRIRQRPPRLPRPRPRPAGIPRP	0.0977
RRIRQRPPRLPRPRPRPAHMPRP	-0.267
RRIRQRPPRLPRPRPRPAIHPRP	0.135
